Test results: article PMC4156082

B1: isolated DH domain of onco-Lbc (AKAP13 residues 1992–2210) (domain or fragment)
chain: VVKRQEVIYELMQTEFHHVRTLKIMSGVYSQGMMADLLFEQQMVEKLFPCLDELISIHSQFFQRILERKKESLVDKSEKNFLIKRIGDVLVNQFSGENAERLKKTYGKFCGQHNQSVNYFKDLYAKDKRFQAFVKKKMSSSVVRRLGIPECILLVTQRITKYPVLFQRILQCTKDNEVEQEDLAQSLSLVKDVIGAVDSKVASYEKKVRLNEIYTKTDS

What was measured:
[1] = target: Soluble RhoA (residues 1–181) (UniProt P61586); assay: SPR; Biacore 3000; His6-RhoA loaded with GDPβS (RhoA-GDP) held on a nitrilotriacetic acid chip; untagged onco-Lbc or DHαPH injected (0–5 μM); PBS pH 7.4, 1 mM MgCl2; reference lane His6-ubiquitin; constant of onco-Lbc called apparent (two sites)
[2] = target: Soluble RhoA (residues 1–181) (UniProt P61586); assay: SPR; Biacore 3000; His6-RhoA loaded with GTPγS (RhoA-GTP) held on a nitrilotriacetic acid chip; untagged onco-Lbc or DHαPH injected (0–5 μM); PBS pH 7.4, 1 mM MgCl2; reference lane His6-ubiquitin; constant of onco-Lbc called apparent (two sites)
[3] = target: Soluble RhoA (residues 1–181) (UniProt P61586)
[4] = target: Soluble RhoA (residues 1–181) (UniProt P61586); remark: listed apart in the source

Sequence of UniProt P61586 (P61586 1-181): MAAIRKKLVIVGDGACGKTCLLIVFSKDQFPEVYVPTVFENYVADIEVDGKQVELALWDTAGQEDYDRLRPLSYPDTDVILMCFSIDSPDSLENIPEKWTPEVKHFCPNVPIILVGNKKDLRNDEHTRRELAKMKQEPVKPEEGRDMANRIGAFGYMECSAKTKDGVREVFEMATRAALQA

Molecule | Kd [1] | Kd [2] | GEF activity: exchange of GDP to Mant-GTP on RhoA, wild-type onco-Lbc = 100 (% of wild-type onco-Lbc) [3] | relative activity (specific exchange activity, DH-PH = 1) (fold of DH-PH) [4] | specific exchange activity (Mant-GDP on RhoA replaced by GMP-PNP) [4]
AKAP-Lbc construct encompassing residues 2164–2346 (DHαPH) (from UniProt Q12802 2164-2346) (domain or fragment) | > 50000 nM | 2930 nM |  |  | 
onco-Lbc (AKAP13 residues 1922–2346) (domain or fragment) | 2880 nM | 2210 nM |  |  | 
onco-Lbc E2001A (domain or fragment) |  |  | 8.4 | 0.27 | 1070 s⁻¹ M⁻¹
onco-Lbc E2319A (domain or fragment) |  |  | 148 | 1.86 | 7300 s⁻¹ M⁻¹
onco-Lbc F2299A (domain or fragment) |  |  | 23.3 | 0.11 | 440 s⁻¹ M⁻¹
onco-Lbc R2136G (domain or fragment) |  |  | 7.4 | 0.06 | 230 s⁻¹ M⁻¹
onco-Lbc R2289A (domain or fragment) |  |  | 10.9 | 0.17 | 680 s⁻¹ M⁻¹
B1 |  |  | 174 | 3.7 | 14300 s⁻¹ M⁻¹
